# From the supplement of paper PMC10567573
# ± gives the standard deviation.
# Assay: protein stability index of a GFP-peptide fusion (GPS, HEK-293T) (PSI 1-6); higher = more stable
# [1] = treatment: DMSO, c terminus: a fixed tail appended
# [2] = treatment: MLN4924 1 uM, 8 h, c terminus: a fixed tail appended
# 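Note: 24-mer peptide tiles fused after GFP, lentivirally expressed, FACS-sorted into six equal bins by GFP/DsRed ratio, decoded by Illumina sequencing, PSI is the read-weighted mean bin number.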
Sequence,protein stability index [1],protein stability index [2],"protein stability index (treatment: DMSO, c terminus: native)","protein stability index (treatment: MLN4924 1 uM, 8 h, c terminus: native)"
LARLEERSSEFYRVTTEQYQKAAE [CHCHD3],4.29 ± 0.27,4.29 ± 0.21,,
KVWSLTGQVAEDRFPESHLPIQTP [TLE6],3.58 ± 0.21,3.47 ± 0.39,,
NEFLEAFRLVEKSCPEGDASECPQ [PPEF2],5 ± 0.75,5.17 ± 0.32,,
LSAEPGWQAKREEEEEEEEEAEAG [CHGA],5.62 ± 0.081,5.4 ± 0.59,,
MLEDGPHNANRGQRLLAFSRGRA [CCDC70],,,2.99 ± 0.63,2.77 ± 0.41
HEDLLTRIGEATKPDGTVEQIGHI [NET1],4.95 ± 0.13,4.93 ± 0.17,,
CLFSLINGDDMFVTFAAMQAQQGR [MCOLN1],2.97 ± 0.47,2.74 ± 0.66,,
RKRLAREMQLSEVQIKTWFQNRRM [VENTX],2.67 ± 0.24,2.73 ± 0.41,,
NMDPKAAEEEEEEEEEVDLACTPT [CCND1],5.6 ± 0.27,5.64 ± 0.13,,
KATNVVMNYSEIESKVREATNDDP [CLINT1],5.35 ± 0.27,5.34 ± 0.15,,
KPPKPPDKPLMPYMRYSRKVWDQV [SMARCE1],2.08 ± 0.33,2.53 ± 0.36,,
RHRLRWHSFQSSHRPSLNSVSLQI [DLC1],2.41 ± 0.1,2.58 ± 0.097,,
DSRIRFGFLTVTNLGVENMNHYKK [PTPN9],2.53 ± 0.19,2.7 ± 0.31,,
ELEPLKGNFDWEAIFDAGTLGGEL [FOXJ1],4.2 ± 0.39,4.05 ± 0.46,,
VKLGPALTPHIVQYQANKVTHTLT [PPEF2],2.35 ± 0.34,2.2 ± 0.42,,
FCYCAGSHKRKRSSGSFCYCHPDS [GMCL1],2.56 ± 0.73,3.19 ± 0.61,,
FHNLVSLNLNYNCISDELLENLCE [FBXO39],2.6 ± 0.18,2.66 ± 0.3,,
TPYLKETLNSIWNVEDHINPKLPN [POMT2],3.37 ± 0.28,3.45 ± 0.2,,
LTQIDGTLSTIEFQREALENSHTN [CHMP4C],4.34 ± 0.25,4.57 ± 0.22,,
RKDVGCNRFEVTLEKSNKNFSKKI [VPS39],3.62 ± 0.22,3.98 ± 0.2,,
QLLWREFFYTAATNNPRFDKMEGN [CRY1],2.02 ± 0.23,2 ± 0.38,,
AEDEEMNRMHESMKLFDSICNNKW [GNAI1],3.97 ± 0.21,4.02 ± 0.22,,

Sequence,protein stability index [1],protein stability index [2],"protein stability index (treatment: DMSO, c terminus: native)","protein stability index (treatment: MLN4924 1 uM, 8 h, c terminus: native)"
EGAFGEHGSQGTYSNTKENGINGE [MAP2],5.19 ± 0.31,5.25 ± 0.17,,
YVLNLLYETKKHLVQLPNINRVST [PPEF2],2.49 ± 0.68,2.59 ± 0.39,,
NRDEHSSRGYRNHRSSRETRDYAP [RBMY1A1],4.74 ± 0.072,4.63 ± 0.095,,
CLDSPGPLDSKENLENPMRRIHSL [CDC25A],4.27 ± 0.19,3.91 ± 0.26,,
STSSSTQGDPAFPEMNGNGAVAPM [NOL4L],4.93 ± 0.34,5.05 ± 0.054,,
PSRQYATLDVYNPFETREPPPAYE [SCAMP3],3.95 ± 0.27,4.14 ± 0.21,,
PAQPGADSSFPPALAEGYRYPELD [TBX6],5.14 ± 0.18,5.01 ± 0.36,,
DYDLVLAEDEEMNRMHESMKLFDS [GNAI1],4.42 ± 0.26,4.84 ± 0.33,,
GFRYSERYDPEPKSKWDEEWDKNK [CLINT1],3.73 ± 0.24,3.78 ± 0.29,,
RYQKYGYIGTHEYPHFSHRPSTLQ [OAS1],2.18 ± 0.14,2.45 ± 0.15,,
EKYGRAHPVFYQGTYSQALNDAKR [FAF2],3.28 ± 0.15,3.47 ± 0.37,,
TGEASENGLEDIDRILERIEDSTG [TCF25],5.47 ± 0.074,5.46 ± 0.29,,
DEAELDYLMDVLVGTQALERPPGP [SERTAD1],3.74 ± 0.35,3.87 ± 0.33,,
LQIDNARLAADDFRTKFETEQALR [KRT17],4.03 ± 0.24,4.27 ± 0.3,,
PSTVGAEAQEEFLRVLGSMCQRLR [DFFB],2.28 ± 0.34,2.2 ± 0.32,,
FQKGQVTRDGFKLVMASLYHIYVA [HMOX1],2.83 ± 0.49,3.12 ± 0.97,,
NVLHGYPKDIYSSFGFPRTVKHID [MMP1],2.63 ± 0.098,2.74 ± 0.24,,
RGVRRTASTPTPDDKLFQKLAKVY [CPN1],2.61 ± 0.29,2.86 ± 0.27,,
GNFQGIRFHYDRNPGTDAVAQTSL [FATE1],3.38 ± 0.22,3.42 ± 0.16,,
YNPHPGFPELGYSYGGGSASSQHS [DVL3],2.95 ± 0.36,3.29 ± 0.26,,
IAFDGVVGSGGRRDSTARRPRPQG [RTN2],4.29 ± 0.17,4.26 ± 0.22,,
RRHCQACRLKRCVDIGMMKEFILT [VDR],2.77 ± 0.72,2.15 ± 0.28,,
